From publication PMC12499500, “Structural Basis of GABAB Receptor Activation during Evolution” (Advanced Science, 2025)

Legend:
Test in all cases: cell-based or functional assay
human GB2 Δ753 = molecular target: T1, human GB2 Δ753 (human, UniProt O75899 42-753)
T1 sequence (looked up): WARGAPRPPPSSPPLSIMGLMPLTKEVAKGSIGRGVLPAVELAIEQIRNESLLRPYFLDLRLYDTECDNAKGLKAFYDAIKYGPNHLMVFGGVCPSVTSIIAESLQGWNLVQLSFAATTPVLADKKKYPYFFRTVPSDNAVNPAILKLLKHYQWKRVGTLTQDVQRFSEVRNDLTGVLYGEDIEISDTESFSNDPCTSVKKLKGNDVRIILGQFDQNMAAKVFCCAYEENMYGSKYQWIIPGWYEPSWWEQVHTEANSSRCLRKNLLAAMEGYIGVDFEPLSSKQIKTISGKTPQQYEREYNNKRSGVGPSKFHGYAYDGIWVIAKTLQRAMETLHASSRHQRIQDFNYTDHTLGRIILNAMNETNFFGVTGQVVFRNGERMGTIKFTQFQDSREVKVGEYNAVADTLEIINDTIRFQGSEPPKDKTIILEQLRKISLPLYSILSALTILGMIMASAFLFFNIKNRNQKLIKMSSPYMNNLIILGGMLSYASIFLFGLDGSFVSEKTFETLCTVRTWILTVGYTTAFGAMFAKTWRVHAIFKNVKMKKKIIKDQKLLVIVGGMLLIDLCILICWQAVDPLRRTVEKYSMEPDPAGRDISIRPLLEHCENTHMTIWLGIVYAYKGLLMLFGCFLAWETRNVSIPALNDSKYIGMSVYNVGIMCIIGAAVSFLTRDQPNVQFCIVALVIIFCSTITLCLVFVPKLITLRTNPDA

human GB2 Δ765 = molecular target: T2, human GB2 Δ765 (human, UniProt O75899 42-765)
T2 sequence (looked up): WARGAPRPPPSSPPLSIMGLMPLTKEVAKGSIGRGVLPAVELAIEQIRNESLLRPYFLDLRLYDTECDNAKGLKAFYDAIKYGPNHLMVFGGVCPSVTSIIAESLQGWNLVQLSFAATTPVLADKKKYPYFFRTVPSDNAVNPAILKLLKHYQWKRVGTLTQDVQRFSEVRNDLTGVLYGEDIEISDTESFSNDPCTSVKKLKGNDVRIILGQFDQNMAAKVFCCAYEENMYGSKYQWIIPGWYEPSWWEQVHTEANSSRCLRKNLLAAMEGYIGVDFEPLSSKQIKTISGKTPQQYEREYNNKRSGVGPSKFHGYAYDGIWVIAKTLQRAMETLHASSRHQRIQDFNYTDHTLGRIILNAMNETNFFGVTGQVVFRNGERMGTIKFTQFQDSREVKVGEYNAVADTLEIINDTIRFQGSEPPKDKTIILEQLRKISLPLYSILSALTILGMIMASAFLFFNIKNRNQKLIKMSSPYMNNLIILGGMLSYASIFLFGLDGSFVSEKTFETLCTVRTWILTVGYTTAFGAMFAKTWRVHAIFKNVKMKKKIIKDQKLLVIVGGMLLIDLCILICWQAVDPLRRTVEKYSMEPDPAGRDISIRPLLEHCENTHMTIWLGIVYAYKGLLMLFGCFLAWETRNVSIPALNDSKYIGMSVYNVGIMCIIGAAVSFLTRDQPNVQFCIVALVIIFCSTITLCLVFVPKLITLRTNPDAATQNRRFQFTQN

[1] = molecular target: dGB2 4 × GSG (ordered C-terminus 717–728 replaced by four glycine-serine-glycine) (Drosophila melanogaster, UniProt Q9BML6 1-1220, 4 × GSG: residues 717–728 replaced with four consecutive glycine-serine-glycine)
human GB2 Δ760 = molecular target: T3, human GB2 Δ760 (human, UniProt O75899 42-760)
T3 sequence (looked up): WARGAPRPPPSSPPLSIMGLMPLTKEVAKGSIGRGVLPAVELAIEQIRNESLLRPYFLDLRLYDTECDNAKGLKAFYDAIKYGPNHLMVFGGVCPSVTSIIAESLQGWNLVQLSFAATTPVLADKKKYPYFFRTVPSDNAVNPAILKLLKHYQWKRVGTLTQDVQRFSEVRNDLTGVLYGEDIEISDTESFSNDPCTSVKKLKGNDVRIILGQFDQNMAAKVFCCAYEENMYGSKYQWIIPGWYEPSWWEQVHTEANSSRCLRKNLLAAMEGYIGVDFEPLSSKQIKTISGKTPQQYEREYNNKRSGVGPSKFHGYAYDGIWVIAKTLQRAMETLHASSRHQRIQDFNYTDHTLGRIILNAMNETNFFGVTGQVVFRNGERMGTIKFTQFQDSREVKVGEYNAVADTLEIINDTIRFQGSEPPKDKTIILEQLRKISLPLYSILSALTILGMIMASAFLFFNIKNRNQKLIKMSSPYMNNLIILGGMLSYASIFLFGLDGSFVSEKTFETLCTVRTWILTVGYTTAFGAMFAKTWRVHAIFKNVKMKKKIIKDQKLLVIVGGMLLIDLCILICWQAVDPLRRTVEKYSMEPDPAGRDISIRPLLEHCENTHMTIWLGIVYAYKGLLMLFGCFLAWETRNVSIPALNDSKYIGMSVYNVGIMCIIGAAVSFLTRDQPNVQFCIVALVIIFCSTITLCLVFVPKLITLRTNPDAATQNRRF

human GB2 Δ772 = molecular target: T4, human GB2 Δ772 (human, UniProt O75899 42-772)
T4 sequence (looked up): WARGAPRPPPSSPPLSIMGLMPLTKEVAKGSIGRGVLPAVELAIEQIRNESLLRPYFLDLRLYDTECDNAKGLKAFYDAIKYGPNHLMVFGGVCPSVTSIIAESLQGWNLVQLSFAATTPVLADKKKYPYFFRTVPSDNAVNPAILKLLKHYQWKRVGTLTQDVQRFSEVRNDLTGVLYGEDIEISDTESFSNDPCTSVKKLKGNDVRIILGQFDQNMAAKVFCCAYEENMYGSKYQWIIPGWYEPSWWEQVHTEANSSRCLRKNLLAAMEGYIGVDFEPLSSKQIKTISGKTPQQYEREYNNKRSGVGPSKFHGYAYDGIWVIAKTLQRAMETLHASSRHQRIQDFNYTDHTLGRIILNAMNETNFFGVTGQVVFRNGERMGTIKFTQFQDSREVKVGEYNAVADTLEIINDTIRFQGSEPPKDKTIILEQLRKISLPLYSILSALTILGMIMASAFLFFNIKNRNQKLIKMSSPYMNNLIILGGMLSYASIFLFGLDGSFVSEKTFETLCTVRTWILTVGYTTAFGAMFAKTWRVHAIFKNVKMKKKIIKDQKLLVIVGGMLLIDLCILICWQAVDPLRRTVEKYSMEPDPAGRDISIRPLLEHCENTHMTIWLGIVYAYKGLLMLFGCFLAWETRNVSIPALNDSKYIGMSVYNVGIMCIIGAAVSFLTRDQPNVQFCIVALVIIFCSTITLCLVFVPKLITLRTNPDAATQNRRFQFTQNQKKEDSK

[2] = molecular target: dGB2 12A (ordered C-terminus 717–728 replaced by 12 alanines) (Drosophila melanogaster, UniProt Q9BML6 1-1220, 12A: residues 717–728 replaced with 12 consecutive alanine residues)
Sequence of dGB2 12A (ordered C-terminus 717–728 replaced by 12 alanines) (Q9BML6 entry or part of it with the stated changes): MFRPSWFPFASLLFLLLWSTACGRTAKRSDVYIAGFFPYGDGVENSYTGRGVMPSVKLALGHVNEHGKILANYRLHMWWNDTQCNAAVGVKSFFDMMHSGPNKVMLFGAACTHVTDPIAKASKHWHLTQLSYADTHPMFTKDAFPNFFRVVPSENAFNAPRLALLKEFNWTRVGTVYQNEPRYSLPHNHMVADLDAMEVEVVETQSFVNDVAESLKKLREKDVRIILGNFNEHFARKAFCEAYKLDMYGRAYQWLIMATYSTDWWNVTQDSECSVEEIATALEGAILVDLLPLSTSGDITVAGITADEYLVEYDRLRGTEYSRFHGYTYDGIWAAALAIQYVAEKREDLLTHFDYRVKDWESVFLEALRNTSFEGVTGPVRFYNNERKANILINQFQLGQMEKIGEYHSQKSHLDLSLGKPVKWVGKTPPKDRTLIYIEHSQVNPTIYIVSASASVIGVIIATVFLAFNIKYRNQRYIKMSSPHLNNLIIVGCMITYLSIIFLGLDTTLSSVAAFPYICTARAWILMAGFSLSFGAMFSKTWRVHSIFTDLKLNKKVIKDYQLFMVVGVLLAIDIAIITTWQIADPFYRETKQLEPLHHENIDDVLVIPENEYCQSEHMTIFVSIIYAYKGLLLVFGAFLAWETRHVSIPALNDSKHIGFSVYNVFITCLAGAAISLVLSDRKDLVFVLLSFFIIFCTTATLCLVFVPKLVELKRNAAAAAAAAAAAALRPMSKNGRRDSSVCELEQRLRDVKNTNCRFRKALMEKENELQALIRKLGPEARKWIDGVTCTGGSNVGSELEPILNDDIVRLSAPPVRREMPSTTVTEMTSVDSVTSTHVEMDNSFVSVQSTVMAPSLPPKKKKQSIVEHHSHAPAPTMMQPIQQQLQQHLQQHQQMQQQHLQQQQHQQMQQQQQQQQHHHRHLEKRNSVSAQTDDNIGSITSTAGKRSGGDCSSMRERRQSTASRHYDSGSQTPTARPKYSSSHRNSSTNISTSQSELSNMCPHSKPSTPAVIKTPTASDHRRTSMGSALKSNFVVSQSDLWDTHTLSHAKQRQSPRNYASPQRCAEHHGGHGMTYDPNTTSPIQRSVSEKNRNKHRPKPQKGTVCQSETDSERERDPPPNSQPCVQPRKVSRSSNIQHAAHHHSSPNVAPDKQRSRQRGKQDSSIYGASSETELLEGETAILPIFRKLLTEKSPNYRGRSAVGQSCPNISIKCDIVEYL

Sequence of dGB2 4 × GSG (ordered C-terminus 717–728 replaced by four glycine-serine-glycine) (Q9BML6 entry or part of it with the stated changes): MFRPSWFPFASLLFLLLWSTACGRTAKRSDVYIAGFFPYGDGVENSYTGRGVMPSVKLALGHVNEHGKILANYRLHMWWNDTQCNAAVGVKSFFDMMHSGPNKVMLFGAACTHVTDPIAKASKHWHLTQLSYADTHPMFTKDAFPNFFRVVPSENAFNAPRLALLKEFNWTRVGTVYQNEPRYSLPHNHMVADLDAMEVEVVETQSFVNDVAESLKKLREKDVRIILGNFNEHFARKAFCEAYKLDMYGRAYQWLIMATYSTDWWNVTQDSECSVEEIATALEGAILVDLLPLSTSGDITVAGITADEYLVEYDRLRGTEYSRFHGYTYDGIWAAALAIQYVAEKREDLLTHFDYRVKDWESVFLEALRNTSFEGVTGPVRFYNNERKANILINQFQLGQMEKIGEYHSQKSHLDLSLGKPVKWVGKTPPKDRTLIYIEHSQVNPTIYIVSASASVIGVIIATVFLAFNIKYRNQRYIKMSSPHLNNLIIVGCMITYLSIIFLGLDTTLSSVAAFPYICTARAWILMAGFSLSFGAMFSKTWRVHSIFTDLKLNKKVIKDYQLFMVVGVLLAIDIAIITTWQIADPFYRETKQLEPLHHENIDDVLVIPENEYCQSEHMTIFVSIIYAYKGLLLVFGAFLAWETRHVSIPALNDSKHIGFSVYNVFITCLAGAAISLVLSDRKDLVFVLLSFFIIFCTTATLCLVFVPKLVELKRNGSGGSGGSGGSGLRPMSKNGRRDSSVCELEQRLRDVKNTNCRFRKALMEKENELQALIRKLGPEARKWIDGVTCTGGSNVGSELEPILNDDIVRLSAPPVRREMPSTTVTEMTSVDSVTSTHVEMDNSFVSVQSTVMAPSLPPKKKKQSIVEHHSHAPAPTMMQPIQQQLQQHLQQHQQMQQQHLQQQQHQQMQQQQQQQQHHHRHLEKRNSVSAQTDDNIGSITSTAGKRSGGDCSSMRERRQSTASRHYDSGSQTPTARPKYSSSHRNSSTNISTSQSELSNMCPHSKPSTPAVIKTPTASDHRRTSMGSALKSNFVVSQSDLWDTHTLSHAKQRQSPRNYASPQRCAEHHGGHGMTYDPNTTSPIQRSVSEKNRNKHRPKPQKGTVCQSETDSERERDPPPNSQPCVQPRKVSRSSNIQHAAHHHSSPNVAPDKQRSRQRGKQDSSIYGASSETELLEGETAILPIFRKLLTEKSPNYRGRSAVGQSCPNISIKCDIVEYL

GABA-induced intracellular Ca2+ release, HEK293 cells co-transfected with GB1ΔCC and the GB2 truncation, increase in EC50 against Δ780 of GB2 (human GB2 Δ753): 30.8 fold
GABA-induced intracellular Ca2+ release, HEK293 cells co-transfected with GB1ΔCC and the GB2 truncation, reduction in E max against Δ780 of GB2 (human GB2 Δ753): 76 % reduction in E max
GABA-induced intracellular Ca2+ release, HEK293 cells co-transfected with GB1ΔCC and the GB2 truncation, increase in EC50 against Δ780 of GB2 (human GB2 Δ765): 9.4 fold
GABA-induced intracellular Ca2+ release, HEK293 cells co-transfected with GB1ΔCC and the GB2 truncation, reduction in E max against Δ780 of GB2 (human GB2 Δ765): 22 % reduction in E max
BRET assay of GABA-induced dissociation of Gαi1 and Gβγ in HEK293 cells, change of EC50 against wild-type dGB2 [1]: 3 fold
GABA-induced intracellular Ca2+ release, HEK293 cells co-transfected with GB1ΔCC and the GB2 truncation, increase in EC50 against Δ780 of GB2 (human GB2 Δ760): 16.2 fold
GABA-induced intracellular Ca2+ release, HEK293 cells co-transfected with GB1ΔCC and the GB2 truncation, reduction in E max against Δ780 of GB2 (human GB2 Δ760): 39 % reduction in E max
GABA-induced intracellular Ca2+ release, HEK293 cells co-transfected with GB1ΔCC and the GB2 truncation, increase in EC50 against Δ780 of GB2 (human GB2 Δ772): 6.5 fold
BRET assay of GABA-induced dissociation of Gαi1 and Gβγ in HEK293 cells, change of EC50 against wild-type dGB2 [2]: 8.8 fold
GABA-induced intracellular Ca2+ release (Gqi9), change of EC50 of GABA against wild-type dGB2 [2]: 2 fold
B1: dominant-negative Gαi1 (S47N, G203A, E245A, A326S) (natural protein, human)
chain: MGCTLSAEDKAAVERSKMIDRNLREDGEKAAREVKLLLLGAGESGKNTIVKQMKIIHEAGYSEEECKQYKAVVYSNTIQSIIAIIRAMGRLKIDFGDSARADDARQLFVLAGAAEEGFMTAELAGVIKRLWKDSGVQACFNRSREYQLNDSAAYYLNDLDRIAQPNYIPTQQDVLRTRVKTTGIVETHFTFKDLHFKMFDVGAQRSERKKWIHCFEGVTAIIFCVALSDYDLVLAEDEEMNRMHASMKLFDSICNNKWFTDTSIILFLNKKDLFEEKIKKSPLTICYPEYAGSNTYEEAAAYIQCQFEDLNKRKDTKEIYTHFTCSTDTKNVQFVFDAVTDVIIKNNLKDCGLF
